Reference: US6159704, “Phosphatase modulator” (Novartis AG, dated 2000)

B1: PP2Ac^150-309 fused to the GAL4 DNA binding domain (enzyme)
chain: FDYLPLTALVDGQIFCLHGGLSPSIDTLDHIRALDRLQEVPHEGPMCDLLWSDPDDRGGWGISPRGAGYTFGQDISETFNHANGLTLVSRAHQLVMEGYNWCHDRNVVTIFSAPNYCYRCGNQAAIMELDDTLKYSFLQFDPAPRRGEPHVTRRTPDYFL
B2: full length human PR55α fused to the GAL4 DNA binding domain (other)
chain: MAGAGGGNDIQWCFSQVKGAVDDDVAEADIISTVEFNHSGELLATGDKGGRVVIFQQEQENKIQSHSRGEYNVYSTFQSHEPEFDYLKSLEIEEKINKIRWLPQKNAAQFLLSTNDKTIKLWKISERDKRPEGYNLKEEDGRYRDPTTVTTLRVPVFRPMDLMVEASPRRIFANAHTYHINSISINSDYETYLSADDLRINLWHLEITDRSFNIVDIKPANMEELTEVITAAEFHPNSCNTFVYSSSKGTIRLCDMRASALCDRHSKLFEEPEDPSNRSFFSEIISSISDVKFSHSGRYMMTRDYLSVKIWDLNMENRPVETYQVHEYLRSKLCSLYENDCIFDKFECCWNGSDSVVMTGSYNNFFRMFDRNTKRDITLEASRENNKPRTVLKPRKVCASGKRKKDEISVDSLDFNKKILHTAWHPKENIIAVATTNNLYIFQDKVN
B3: PP2Ac^100-309 fused to the GAL4 DNA binding domain (enzyme)
chain: LVALKVRYRERITILRGNHESRQITQVYGFYDECLRKYGNANVWKYFTDLFDYLPLTALVDGQIFCLHGGLSPSIDTLDHIRALDRLQEVPHEGPMCDLLWSDPDDRGGWGISPRGAGYTFGQDISETFNHANGLTLVSRAHQLVMEGYNWCHDRNVVTIFSAPNYCYRCGNQAAIMELDDTLKYSFLQFDPAPRRGEPHVTRRTPDYFL
B4: GAL4 transactivation domain alone (empty vector pGAD424) (other)
chain: ANFNQSGNIADSSLSFTFTNSSNGPNLITTQTNSQALSQPIASSNVHDNFMNNEITASKIDDGNNSKPLSPGWTDQTAYNAFGITTGMFNTTTMDDVYNYLFDDEDTPPNPKKE

Tests used:
[1] = molecular target: full length human eRF1 fused to the GAL4 transactivation domain (yeast; human, UniProt P62495); assay: yeast two-hybrid: His growth (HF7c) and colony colour in filter β-Gal assay (SFY526)
Source text: PCR products encoding three N-terminal (PP2Ac^50-309, PP2Ac^100-309 and PP2Ac^150-309) and three C-terminal (PP2Ac^1-259, PP2Ac^1-209 and PP2Ac^1-159) truncations of PP2Acα are subcloned into pGBT9 in-frame with the GAL4 DNA binding domain. Control plasmids encoding wild-type GAL4 protein (pCL1), SV40 large T antigen (pTD1), p53 (pVA3) and lamin C (pLAM5'), the latter three fused to the appropriate domains of GAL4, are provided by the manufacturer and used for control interactions. Expression constructs are transformed into *S. cerevisiae* host strains SFY526 (lacZ reporter gene) and HF7c (lacZ and HIS3 reporter genes). […] The expression of the lacZreporter gene is determined by measuring β-galactosidase activity using 5-bromo-4-chloro-3-indolyl-β-D-galactoside [X-Gal] and O-nitrophenyl-β-D-galactoside [ONPG] as substrates, whereas the expression of HIS3 reporter gene is assessed by monitoring growth on triple selective SD medium lacking leucine, tryptophan and histidine. All media and reagents are prepared according to the manufacturer's recommendations. Transcriptional activation of reporter genes driven by wild-type GAL4 protein or brought about by the interaction between SV40 largeT and p53 are used as positive controls. To exclude intrinsic transcriptional activation capacity or non-specific binding of either molecules to unrelated proteins, cotransformations with the empty vector or vector encoding human lamin C fused to the opposite domain of GAL4 are used as negative controls.

[2] = molecular target: full length human PP2Acα fused to the GAL4 DNA binding domain (yeast; human); assay: yeast two-hybrid, empty vector control: His growth (HF7c) and filter β-Gal colour (SFY526)
[3] = molecular target: PP2Ac^50-309 fused to the GAL4 DNA binding domain (yeast; human, UniProt P04386); assay: as above
[4] = molecular target: B3; assay: as above
[5] = molecular target: B1; assay: as above
[6] = molecular target: PP2Ac^1-259 fused to the GAL4 DNA binding domain (yeast; human, UniProt P04386); assay: as above
[7] = molecular target: PP2Ac^1-209 fused to the GAL4 DNA binding domain (yeast; human, UniProt P04386); assay: as above
[8] = molecular target: PP2Ac^1-159 fused to the GAL4 DNA binding domain (yeast; human, UniProt P04386); assay: as above
[9] = molecular target: full length human PR65α fused to the GAL4 DNA binding domain (yeast; human); assay: as above
[10] = molecular target: B2; assay: as above

Measured: binding result

B1
no binding: [1]

B2
no binding: [1]

B3
no binding: [1]

B4
not listed: [1]
no binding: all other assays above
